For 1 molecule, Kd results are on record in PMC2756776 (Arteriosclerosis, thrombosis, and vascular biology, 2009).

The target of the assay is Factor XI (FXI), plasma-derived (human). The experiment in a line: ELISA.

B1: Soluble recombinant ApoER2’ (a splice variant of ApoER2 lacking LDL-binding domains 4, 5 and 6) (receptor)
chain: not shown
For B1, the Kd (commonly the concentration at which binding is half-saturated) stood at 61 nM.
